To fix the notation:
B1: 12844B (antibody, human IgG1, kappa, V domains shown)
VH: EVQLVESGGSVVRPGGSLRLSCEASGFTFDDYGMSWVRQDPGKGLEWVSGINWNGDRTNYADSVKGRFIISRDNAKNSVYLQMNSLRAEDSALYHCARDQGLGVAATLDYWGQGTLVTVSS
VL: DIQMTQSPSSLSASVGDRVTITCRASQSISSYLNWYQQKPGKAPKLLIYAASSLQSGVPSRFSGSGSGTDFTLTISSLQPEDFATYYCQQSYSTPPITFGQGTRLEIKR
notes: Tested as bivalent human IgG1 from CHO primary supernatant
B2: 12802B (antibody, human IgG1, kappa, V domains shown)
VH: QVQLVESGGGLVKPGGSLRLSCAASGFTFSDYFMSWIRQAPGKGLEWVSYISSTGSTINYADSVKGRFTISRDNVKNSLYLQMTSLRVEDTAVYYCTRDNWNYEYWGQGTLVTVSS
VL: EIVMTQSPATLSVSPGERATLSCRASQSVSINLAWYQQKPGQAPRLLIFVASTRATGIPARFSGSGSGTEFTLTISSLQSEDFATYYCQQYDIWPYTFGQGTKLEIKR
notes: as for B1
B3: 12848B (antibody, human IgG1, kappa, V domains shown)
VH: EVQLVESGGGLVQPGRSLTLSCAASGFTFDNFGMHWVRQGPGKGLEWVSGLTWNSGVIGYADSVKGRFTISRDNAKNSLYLQMNSLRPEDTALYYCAKDIRNYGPFDYWGQGTLVTVSS
VL: not shown
notes: Tested as bivalent human IgG1 from CHO primary supernatant; also called H1H12848B; REGN17515
B4: 12843B (antibody, human IgG1, kappa, V domains shown)
VH: EVQLVESGGGLVQPGGSLRLSCAASGFTFNIFEMNWVRQAPGKGLEWISYISSRGTTTYYADSVRGRFTISRDNAKNSLYLQMNSLRAEDTAVYYCARDYEATIPFDFWGQGTLVTVSS
VL: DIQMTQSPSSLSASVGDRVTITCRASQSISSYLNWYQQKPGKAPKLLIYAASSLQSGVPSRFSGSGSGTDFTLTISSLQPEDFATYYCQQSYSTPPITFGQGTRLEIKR
notes: Tested as bivalent human IgG1 from CHO primary supernatant; also called H1H12843B; REGN17512
B5: 12835B (antibody, human IgG1, kappa, V domains shown)
VH: EVQLVESGGGLIQPGGSLRLSCEASGFTFRNYEMNWVRQAPGKGLEWVSYISSSGNMKDYAESVKGRFTISRDNVKNSLQLQMNSLRVEDTAVYYCARDEFPYGMDVWGQGTTVTVSS
VL: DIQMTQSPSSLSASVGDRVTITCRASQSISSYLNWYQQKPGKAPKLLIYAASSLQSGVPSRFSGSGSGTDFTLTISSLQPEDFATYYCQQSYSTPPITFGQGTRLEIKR
notes: Tested as bivalent human IgG1 from CHO primary supernatant; also called H1H12835B; REGN17509
B6: 12847B (antibody, human IgG1, kappa, V domains shown)
VH: EVQLVESGGGLVQPGRSLRLSCAASGFTFDDYAMNWVRQAPGKGLEWVSGISWSSGSMDYADSVKGRFTISRDNAKNSLYLQMNSLRTEDTALYYCAKAREVGDYYGMDVWGQGTTVTVSS
VL: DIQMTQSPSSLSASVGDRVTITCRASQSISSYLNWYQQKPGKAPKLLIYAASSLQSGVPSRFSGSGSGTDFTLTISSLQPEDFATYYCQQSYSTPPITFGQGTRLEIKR
notes: Tested as bivalent human IgG1 from CHO primary supernatant; also called H1H12847B; REGN17514
B7: 12850B (antibody, human IgG1, kappa, V domains shown)
VH: QVQLVQSGAEVKKPGSSVKVSCKASGGTFNTYAITWVRQAPGQGLEWMGGIIPISGIAEYAQKFQGRVTITTDDSSTTAYMELNSLRSEDTAVYYCASWNYALYYFYGMDVWGRGTTVTVSS
VL: not shown
notes: Tested as bivalent human IgG1 from CHO primary supernatant; also called H1H12850B; REGN17516
B8: 12808B (antibody, human IgG1, kappa, V domains shown)
VH: QLQLQESGPGLVKPSETLSLTCTVSGESISSNTYYWGWIRQPPGKGLEWIGSIDYSGTTNYNPSLKSRVTISVDTSRNHFSLRLRSVTAADTAVYYCAREWGNYGYYYGMDVWGQGTTVTVSS
VL: DIQMTQSPSSLSASVGDRVTINCRASQGIRNDLGWYQQKPGKAPKRLIYAASSLQSGVPLRFSGSGSGTEFTLTINNLQPEDFATYYCLSHNSYPWTFGQGTKVEIKR
notes: as for B1
B9: 12801B (antibody, human IgG1, kappa, V domains shown)
VH: EVQLLESGGALVQPGGSLRLSCAASGFTFTSYAMHWVRQAPGKGLEWVSSIRGSGGGTYSADSVKGRFTISRDNSRDTLYLQMNSVRAEDTAVYYCARSHDYGAFDFFDYWGQGTLVTVSS
VL: DIQMTQSPSSLSASVGDRVTITCRASQGIRTDLGWYQQKPGKAPKRLIYAASSLQSGVPSRFSGSGSGTEFTLTISSLRPEDFATFYCLQYNSYPLTFGGGTKVEIKR
notes: as for B1

In one assay the target is T1, hmm.hTfRC (REGN2431), human transferrin receptor extracellular domain with hexahistidine-myc-myc tag (human, UniProt P02786 89-760).
T1 construct: Monomeric recombinant protein, 79210 g/mol; also called hTFR-mmh; His-myc-myc-hTFRC ecto
T1 sequence (P02786 other isoform, or with tags, fused parts or gaps): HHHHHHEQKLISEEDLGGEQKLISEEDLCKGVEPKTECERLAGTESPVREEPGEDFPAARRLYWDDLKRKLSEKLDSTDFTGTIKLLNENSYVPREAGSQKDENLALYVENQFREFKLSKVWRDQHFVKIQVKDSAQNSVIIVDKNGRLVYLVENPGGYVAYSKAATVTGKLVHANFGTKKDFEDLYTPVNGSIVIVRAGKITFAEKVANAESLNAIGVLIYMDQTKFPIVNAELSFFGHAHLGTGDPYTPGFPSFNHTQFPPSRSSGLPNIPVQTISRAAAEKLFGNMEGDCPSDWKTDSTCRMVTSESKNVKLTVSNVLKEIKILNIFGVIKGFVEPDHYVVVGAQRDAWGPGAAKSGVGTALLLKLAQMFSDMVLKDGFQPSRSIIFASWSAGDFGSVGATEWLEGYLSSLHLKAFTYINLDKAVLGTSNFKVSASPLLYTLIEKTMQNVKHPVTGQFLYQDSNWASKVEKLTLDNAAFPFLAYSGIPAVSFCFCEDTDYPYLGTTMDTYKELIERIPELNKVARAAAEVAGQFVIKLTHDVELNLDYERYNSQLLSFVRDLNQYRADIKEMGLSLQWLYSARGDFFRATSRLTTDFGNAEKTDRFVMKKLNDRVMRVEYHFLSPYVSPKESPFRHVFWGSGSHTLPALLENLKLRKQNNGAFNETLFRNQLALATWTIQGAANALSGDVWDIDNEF
In words: SPR (Biacore), mAb captured on anti-human Fc, 100 nM hTFR-mmh, 25 C. Here is the method:
(§1) Biacore binding kinetics assays were conducted for the interaction of 32 anti-human TfR IgG1 monoclonal antibodies from CHO supernatants with TfR reagents at 25° C.
(§2) Equilibrium dissociation constants (KD) for the interaction of anti-TfR monoclonal antibodies with human and fascicularis monkey TfR ecto domain recombinant proteins were determined using a real-time surface plasmon resonance (SPR) based Biacore S200 biosensor. All binding studies were performed in 10 mM HEPES, 150 mM NaCl, 3 mM EDTA, and 0.05% v/v surfactant Tween-20, pH 7.4 (HBS-EP) running buffer at […]. The Biacore CM5 sensor surface was first derivatized by amine coupling with a monoclonal mouse anti-human Fc antibody (REGN2567) followed by a step to capture anti-TfR monoclonal antibodies in CHO conditioned media. […] The dissociation of TfR bound to anti-TfR monoclonal antibodies was monitored for 3 minutes in HBS-EP running buffer. At the end of each cycle, the anti-TfR monoclonal antibodies capture surface was regenerated using a 12-sec injection of 20 mM H₃PO₄. The association rate (ka) and dissociation rate (kd) were determined by fitting the real-time binding sensorgrams to a 1:1 binding model with mass transport limitation using Scrubber 2.0 c software. The dissociation equilibrium constant (KD) and dissociative half-life (t½) were calculated from the kinetic rate constants as: […]
A general note: SPR reads the build-up and loss of mass on a sensor chip optically.
One may read the Kd as a measure of binding affinity in units of concentration. A word on the koff: it is the first-order rate constant of dissociation. The term kon denotes the rate constant with which the complex forms. What is called t½ is the time needed for the level to fall by half in the phase considered. Take B1: the “100 nM Ag Bound (RU)” value turned out to be 946 RU, the Kd was determined as 0.935 nM, the koff is 0.000122 s⁻¹ and the kon was found to be 131000 M⁻¹ s⁻¹. This molecule yielded a t½ of 95 min.

Turning to B2, the “100 nM Ag Bound (RU)” value amounted to 903 RU; the affinity, expressed as Kd, was 0.236 nM; the koff was 2.92e-05 s⁻¹; the kon turned out to be 123000 M⁻¹ s⁻¹. Besides, the t½ turned out to be 395 min.

For the molecule B3, the “100 nM Ag Bound (RU)” value was determined as 823 RU, binding was put at a Kd of 0.494 nM, the koff stood at 4.99e-05 s⁻¹ and the kon turned out to be 101000 M⁻¹ s⁻¹. In addition, the t½ worked out at 232 min.

For B4, the “100 nM Ag Bound (RU)” value was 854 RU, the Kd was determined as 1.78 nM, the koff was determined as 0.000168 s⁻¹ and the kon amounted to 94200 M⁻¹ s⁻¹. The molecule further came in with a t½ of 68.8 min.

In the case of B5, the “100 nM Ag Bound (RU)” value came to 1150 RU, the Kd was found to be 3.11 nM, the koff is 0.000417 s⁻¹ and the kon is 134000 M⁻¹ s⁻¹. The molecule also had a t½ of 27.7 min.

Turning to B6, the “100 nM Ag Bound (RU)” value is 895 RU, the Kd came to 1.62 nM, the koff amounted to 0.000171 s⁻¹ and the kon turned out to be 105000 M⁻¹ s⁻¹. The same molecule gave a t½ of 67.6 min.

Take B7: the “100 nM Ag Bound (RU)” value came to 725 RU, the Kd amounted to 0.215 nM, the koff was determined as 1.76e-05 s⁻¹ and the on-rate (kon) is 83700 M⁻¹ s⁻¹. This molecule also returned a t½ of 657 min.

For the molecule B8, the “100 nM Ag Bound (RU)” value is 964 RU, the Kd was 0.894 nM, the koff came to 0.000107 s⁻¹ and the kon came out at 119000 M⁻¹ s⁻¹. This molecule came in with a t½ of 108 min.

Take B9: the “100 nM Ag Bound (RU)” value came to 598 RU, the Kd is 0.513 nM, the koff worked out at 4.19e-05 s⁻¹ and the kon was 81900 M⁻¹ s⁻¹. The molecule further had a t½ of 276 min.

In the next assay the target is T2, mf TFRC ecto-mmh (REGN2054), monomeric monkey (cyno) Tfrc ectodomain with C-terminal myc-myc-hexahistidine tag (monkey (cyno), Macaca fascicularis, UniProt H9EXL1 89-760).
T2 construct: range 89-760; also called mfTfR-mmh; mfTFR-mmh
T2 sequence (chain, as listed by the source): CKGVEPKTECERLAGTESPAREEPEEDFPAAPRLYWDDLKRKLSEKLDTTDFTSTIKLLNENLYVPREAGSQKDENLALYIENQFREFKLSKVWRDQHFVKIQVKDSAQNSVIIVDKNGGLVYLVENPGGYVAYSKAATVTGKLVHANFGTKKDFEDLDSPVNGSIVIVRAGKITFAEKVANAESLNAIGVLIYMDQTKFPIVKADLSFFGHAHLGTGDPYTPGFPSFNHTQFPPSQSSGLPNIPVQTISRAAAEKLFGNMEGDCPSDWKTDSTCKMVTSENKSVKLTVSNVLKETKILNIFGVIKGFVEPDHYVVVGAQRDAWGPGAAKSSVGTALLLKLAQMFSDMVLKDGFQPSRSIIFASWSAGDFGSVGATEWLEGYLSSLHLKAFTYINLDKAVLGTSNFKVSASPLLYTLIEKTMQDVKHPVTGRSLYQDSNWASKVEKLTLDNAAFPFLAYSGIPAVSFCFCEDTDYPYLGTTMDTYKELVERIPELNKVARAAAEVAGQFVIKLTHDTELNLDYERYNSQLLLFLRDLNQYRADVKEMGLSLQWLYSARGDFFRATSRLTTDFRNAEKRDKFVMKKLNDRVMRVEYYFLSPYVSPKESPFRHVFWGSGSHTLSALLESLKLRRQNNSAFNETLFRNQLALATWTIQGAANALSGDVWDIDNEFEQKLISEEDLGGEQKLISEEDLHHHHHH
The experiment in a line: SPR (Biacore), mAb captured on anti-human Fc, 100 nM mfTfR-mmh, 25 C. Here is the method:
as §1, §2
In the case of B1, the “100 nM Ag Bound (RU)” value is 437 RU, the Kd was 9.68 nM, the koff was found to be 0.000735 s⁻¹ and the kon was 75900 M⁻¹ s⁻¹. The molecule also returned a t½ of 15.7 min.

Turning to B2, the “100 nM Ag Bound (RU)” value worked out at 464 RU, binding was characterised by a dissociation constant (Kd) of 7.51 nM, the koff amounted to 0.000529 s⁻¹ and the kon was found to be 70500 M⁻¹ s⁻¹. In addition, the t½ was found to be 21.8 min.

B3: the “100 nM Ag Bound (RU)” value turned out to be 261 RU, binding was characterised by a dissociation constant (Kd) of 18.2 nM, the koff was 0.000962 s⁻¹ and the on-rate constant (kon) was 52900 M⁻¹ s⁻¹. The same molecule had a t½ of 12 min.

Take B4: the “100 nM Ag Bound (RU)” value is 399 RU, binding was put at a Kd of 15 nM, the koff came to 0.00118 s⁻¹ and the kon is 79000 M⁻¹ s⁻¹. The same molecule gave a t½ of 9.8 min.

For B5, the “100 nM Ag Bound (RU)” value came out at 254 RU; the affinity, expressed as Kd, was 17.7 nM; the koff came to 0.00168 s⁻¹; the kon turned out to be 95100 M⁻¹ s⁻¹. Moreover, the t½ stood at 6.9 min.

As for B6, the “100 nM Ag Bound (RU)” value came out at 702 RU; the affinity, expressed as Kd, was 3.36 nM; the koff is 0.000333 s⁻¹; the on-rate constant (kon) is 99200 M⁻¹ s⁻¹. The t½ was determined as 34.7 min.

Take B7: the “100 nM Ag Bound (RU)” value turned out to be 87 RU, binding was put at a Kd of 15.5 nM, the koff was determined as 0.00157 s⁻¹ and the kon was determined as 101000 M⁻¹ s⁻¹. This molecule yielded a t½ of 7.3 min.

For the molecule B8, the “100 nM Ag Bound (RU)” value came out at 626 RU; the affinity, expressed as Kd, was 5.78 nM; the koff worked out at 0.000454 s⁻¹; the kon came to 78500 M⁻¹ s⁻¹. This molecule displayed a t½ of 25.5 min.

On to B9, for which the “100 nM Ag Bound (RU)” value is 159 RU, the Kd was found to be 10.2 nM, the off-rate (koff) turned out to be 0.000653 s⁻¹ and the kon turned out to be 64000 M⁻¹ s⁻¹. This molecule gave a t½ of 17.7 min.

Source of the values: US20250049896A1 (Regeneron, published 2025).
